This is an account of results in US20070086998A1.

The test has as its target HLA-DR as expressed on the tumor cell line. Kind of test: cell-based or functional assay.

B1: MS-GPC-8-27-41 (IgG4 form) (antibody, V domains shown)
VH: QVELKESGPALVKPTQTLTLTCTFSGFSLSTSGVGVGWIRQPPGKALEWLALIDWDDDKYYSTSLKTRLTISKDTSKNQVVLTMTNMDPVDTATYYCARSPRYRGAFDYWGQGTLVTVSS
VL: DIVLTQPPSVSGAPGQRVTISCSGSESNIGNNYVQWYQQLPGTAPKLLIYDNNQRPSGVPDRFSGSKSGTSASLAITGLQSEDEADYYCQSYDMNVHVFGGGTKLTVLG
On to B1, for which the % Killing by mAb; ARH-77 (DR 12); 50 nM, 4 h was found to be 85%; the % Killing by mAb; BJAB (DR 12,13); 50 nM, 4 h came to 71%; the % Killing by mAb; BONNA-12; 50 nM, 4 h stood at 92%; the % Killing by mAb; DOHH-2 (DR 1,2); 50 nM, 4 h amounted to 59%. The molecule further had a % Killing by mAb; EOL-1; 50 nM, 4 h of 69%; a % Killing by mAb; GRANTA-519 (DR 2,11); 50 nM, 4 h of 78%; a % Killing by mAb; HC-1; 50 nM, 4 h of 93%; a % Killing by mAb; HD-MY-Z; 50 nM, 4 h of 69%. The same molecule displayed a % Killing by mAb; HDLM-2; 50 nM, 4 h of 88%; a % Killing by mAb; KARPAS-299 (DR 1,2); 50 nM, 4 h of 82%; a % Killing by mAb; KARPAS-422 (DR 2,4); 50 nM, 4 h of 66%; a % Killing by mAb; KM-H2; 50 nM, 4 h of 86%. The % Killing by mAb; L1236; 50 nM, 4 h came out at 63%; the % Killing by mAb; L-363; 50 nM, 4 h came to 26%; the % Killing by mAb; L-428 (DR 12); 50 nM, 4 h is 91%; the % Killing by mAb; LP-1; 50 nM, 4 h amounted to 73%. In addition, the % Killing by mAb; MHH-CALL-4 (DR 1,2); 50 nM, 4 h worked out at 63%; the % Killing by mAb; MHH-PREB-1; 50 nM, 4 h worked out at 4%; the % Killing by mAb; MN-60 (DR 10,13); 50 nM, 4 h came to 69%; the % Killing by mAb; NALM-1 (DR 1,4); 50 nM, 4 h is 82%. This molecule gave a % Killing by mAb; RAJI (DR 10,17); 50 nM, 4 h of 84%; a % Killing by mAb; RPMI-8226; 50 nM, 4 h of 29%; a % Killing by mAb; SR-786 (DR 1,2); 50 nM, 4 h of 53%; a killing of melanoma cell line WM 115 of 21%.

B2: MS-GPC-8-17 (Fab) (Fab, V domains shown)
VH: QVQLKESGPALVKPTQTLTLTCTFSGFSLSTSGVGVGWIRQPPGKALEWLALIDWDDDKYYSTSLKTRLTISKDTSKNQVVLTMTNMDPVDTATYYCARSPRYRGAFDYWGQGTLVTVSS
VL: DIVLTQPPSVSGAPGQRVTISCSGSSSNIGSNYVSWYQQLPGTAPKLLIYDNNQRPSGVPDRFSGSKSGTSASLAITGLQSEDEADYYCQSYDFSVYVFGGGTKLTVLG
The molecule B2 yielded a maximum capacity to kill MHH-Call 4 cells of 78%.

B3: MS-GPC-8-6 (Fab) (Fab, V domains shown)
VH: QVQLKESGPALVKPTQTLTLTCTFSGFSLSTSGVGVGWIRQPPGKALEWLALIDWDDDKYYSTSLKTRLTISKDTSKNQVVLTMTNMDPVDTATYYCARSPRYRGAFDYWGQGTLVTVSS
VL: DIVLTQPPSVSGAPGQRVTISCSGSSSNIGSNYVSWYQQLPGTAPKLLIYDNNQRPSGVPDRFSGSKSGTSASLAITGLQSEDEADYYCQSYDYDHYVFGGGTKLTVLG
Regarding B3, the maximum capacity to kill MHH-Call 4 cells amounted to 76%.

B4: MS-GPC-8-Fab (Fab, V domains shown)
VH: QVQLKESGPALVKPTQTLTLTCTFSGFSLSTSGVGVGWIRQPPGKALEWLALIDWDDDKYYSTSLKTRLTISKDTSKNQVVLTMTNMDPVDTATYYCARSPRYRGAFDYWGQGTLVTVSS
VL: DIVLTQPPSVSGAPGQRVTISCSGSSSNIGSNYVSWYQQLPGTAPKLLIYDNNQRPSGVPDRFSGSKSGTSASLAITGLQSEDEADYYCQSYDMPQAVFGGGTKLTVLG
B4 came in with a maximum capacity to kill MHH-Call 4 cells of 65%.

B5: MS-GPC-8-10-57 (IgG4 form) (antibody, V domains shown)
VH: QVELKESGPALVKPTQTLTLTCTFSGFSLSTSGVGVGWIRQPPGKALEWLALIDWDDDKYYSTSLKTRLTISKDTSKNQVVLTMTNMDPVDTATYYCARSPRYRGAFDYWGQGTLVTVSS
VL: DIVLTQPPSVSGAPGQRVTISCSGSESNIGNNYVQWYQQLPGTAPKLLIYDNNQRPSGVPDRFSGSKSGTSASLAITGLQSEDEADYYCQSYDLIRHVFGGGTKLTVLG
In turn, B5 displayed a % Killing by mAb; ARH-77 (DR 12); 50 nM, 4 h of 88%; a % Killing by mAb; BJAB (DR 12,13); 50 nM, 4 h of 67%; a % Killing by mAb; BONNA-12; 50 nM, 4 h of 91%; a % Killing by mAb; DOHH-2 (DR 1,2); 50 nM, 4 h of 60%. Also, the % Killing by mAb; EOL-1; 50 nM, 4 h amounted to 49%; the % Killing by mAb; GRANTA-519 (DR 2,11); 50 nM, 4 h stood at 78%; the % Killing by mAb; HC-1; 50 nM, 4 h turned out to be 86%; the % Killing by mAb; HD-MY-Z; 50 nM, 4 h came to 57%. The molecule also returned a % Killing by mAb; HDLM-2; 50 nM, 4 h of 84%; a % Killing by mAb; KARPAS-299 (DR 1,2); 50 nM, 4 h of 79%; a % Killing by mAb; KARPAS-422 (DR 2,4); 50 nM, 4 h of 68%; a % Killing by mAb; KM-H2; 50 nM, 4 h of 88%. Further, the % Killing by mAb; L1236; 50 nM, 4 h came out at 66%; the % Killing by mAb; L-363; 50 nM, 4 h came out at 24%; the % Killing by mAb; L-428 (DR 12); 50 nM, 4 h came to 91%; the % Killing by mAb; LP-1; 50 nM, 4 h is 70%. In addition, the % Killing by mAb; MHH-CALL-4 (DR 1,2); 50 nM, 4 h was 46%; the % Killing by mAb; MHH-PREB-1; 50 nM, 4 h amounted to 8%; the % Killing by mAb; MN-60 (DR 10,13); 50 nM, 4 h worked out at 66%; the % Killing by mAb; NALM-1 (DR 1,4); 50 nM, 4 h was determined as 78%. The molecule further showed a % Killing by mAb; RAJI (DR 10,17); 50 nM, 4 h of 86%; a % Killing by mAb; RPMI-8226; 50 nM, 4 h of 26%; a % Killing by mAb; SR-786 (DR 1,2); 50 nM, 4 h of 44%.

B6: MS-GPC-8-6-13 (IgG4 form) (antibody, V domains shown)
VH: QVELKESGPALVKPTQTLTLTCTFSGFSLSTSGVGVGWIRQPPGKALEWLALIDWDDDKYYSTSLKTRLTISKDTSKNQVVLTMTNMDPVDTATYYCARSPRYRGAFDYWGQGTLVTVSS
VL: DIVLTQPPSVSGAPGQRVTISCSGSESNIGANYVTWYQQLPGTAPKLLIYDNNQRPSGVPDRFSGSKSGTSASLAITGLQSEDEADYYCQSYDYDHYVFGGGTKLTVLG
On to B6, for which the % Killing by mAb; ARH-77 (DR 12); 50 nM, 4 h came to 87%; the % Killing by mAb; BJAB (DR 12,13); 50 nM, 4 h stood at 64%; the % Killing by mAb; BONNA-12; 50 nM, 4 h is 86%; the % Killing by mAb; DOHH-2 (DR 1,2); 50 nM, 4 h came to 53%. The % Killing by mAb; EOL-1; 50 nM, 4 h worked out at 53%; the % Killing by mAb; GRANTA-519 (DR 2,11); 50 nM, 4 h is 73%; the % Killing by mAb; HC-1; 50 nM, 4 h came out at 93%; the % Killing by mAb; HD-MY-Z; 50 nM, 4 h was 72%. The % Killing by mAb; HDLM-2; 50 nM, 4 h is 90%; the % Killing by mAb; KARPAS-299 (DR 1,2); 50 nM, 4 h came to 76%; the % Killing by mAb; KARPAS-422 (DR 2,4); 50 nM, 4 h was found to be 71%; the % Killing by mAb; KM-H2; 50 nM, 4 h was determined as 87%. This molecule displayed a % Killing by mAb; L1236; 50 nM, 4 h of 66%; a % Killing by mAb; L-363; 50 nM, 4 h of 19%; a % Killing by mAb; L-428 (DR 12); 50 nM, 4 h of 92%; a % Killing by mAb; LP-1; 50 nM, 4 h of 73%. The same molecule gave a % Killing by mAb; MHH-CALL-4 (DR 1,2); 50 nM, 4 h of 43%; a % Killing by mAb; MHH-PREB-1; 50 nM, 4 h of 11%; a % Killing by mAb; MN-60 (DR 10,13); 50 nM, 4 h of 67%; a % Killing by mAb; NALM-1 (DR 1,4); 50 nM, 4 h of 65%. The % Killing by mAb; RAJI (DR 10,17); 50 nM, 4 h is 83%; the % Killing by mAb; RPMI-8226; 50 nM, 4 h is 19%; the % Killing by mAb; SR-786 (DR 1,2); 50 nM, 4 h turned out to be 26%.
